These results are taken from the DeepSol protein solubility set.

A short description of the series: soluble on expression in E. coli; label from the status in PepcDB or PDB records.
As to “SLSFLYFNDNSKIANAPLKNRFEKTQKESLIIKNNNEDKKAKSKPKFYLIIDDVGYDEFMLEQFIKLNLKITYAIIPFLPKSMSLYKKLKNANKTVIIHFPMQSKHRNSIEKFHINIKDKKEEIHKKIEKAFKKYPDAKIMNNHMGSLITSNKDLMKIILEKLKEIDRYFFDSVTIAGSVPEIIGKEIGVKVEKRDVFLDSKDTEESVTKELEKAKNIARKNGMVKVIGHIWSKNTLKVLKKEGPDLNQEFEFDNLLNLYEETIR”, the “soluble on expression in E. coli” value is listed as “soluble”.
To “KAGSAAAPFTKPFAVYKNVKFYLGDISHLVNCVSFDFVVNAANENLLHGGGVARAIDILTEGQLQSLSKDYISSNGPLKVGAGVMLECEKFNVFNVVGPRTGKHEHSLLVEAYNSILFENGIPLMPLLSCGIFGVRIENSLKALFSCDINKPLQVFVYSSNEEQAVLKFLDGLD” belongs “soluble”; to “MSLKQYETIILHRHVRPDPDAYGSQMGLAEIIRASFPEKKVYSVGNDEKSLQFLGIVDEITDEIYKDALVIVCDTANQERISDGRFNLGKALIKIDHHPNDDAYGDLLWVDTTASSCSEMIVAFWEMFSDELILNETAARLLYAGIVGDTGRFLYPSTTEETLRLSAHLVTFPFDRPALYRELYELPKNTVKLSGYILQNFVMDENGAATVYLSDTLLNEFEVDPRDASALVSCIENVKGIKAWIMFIQEGPVFRARLRSKGPVINELAKEYGGGGHPLASGATLHNEEEIKEMTAKLQRIEGHHHHHH”, “not soluble”; to “MAPHGDGLSDIEEPEVDAQSEILRPISSVVFVIAMQAEALPLVNKFGLSETTDSPLGKGLPWVLYHGVHKDLRINVVCPGRDAALGIDSVGTVPASLITFASIQALKPDIIINAGTCGGFKVKGANIGDVFLVSDVVFHDRRIPIPMFDLYGVGLRQAFSTPNLLKELNLKIGRLSTGDSLDMSTQDETLIIANDATLKDMEGAAVAYVADLLKIPVVFLKAVTDLVDGDKPTAEEFLQNLTVVTAALEGTATKVINFINGRNLSDL”, “soluble”.
Next, “MGHHHHHHSHGDAAPEALEFEYDLAEPPEKVWRALTVPELLAAWMMPNDIRPEIGNRFAFAGTEAAIECEILDAEPERLLRYSWRQQPGDAARQDPLDSVVTFTLARTVSGGTHLRIVHDGFGGKAMPAVAMASG”: “not soluble”.
Next, “MGSDKIHHHHHHMKVRIRDFIETTEGLYFAVNTYAHPKNKFFAFLRYVPYEFVDFKIEDNNIREINGRKYIKMAESKIAYKFLEEKFSKYLYYDETINVLMHAIPKEDVKRILRPKERLNEIINEENNLNELEEKCRKLALILEDYGVPIKSMGVSGSLLLKLNNKNSDIDFVIYGKDMHKKAREALKQAFEDNKLKPLSDDFWKIAYKKRIKDKTLTYEEFVFYEKRKYNRGIVDNTMFDLLFTREWDEITEKYGDKRYKNLGFAKIEGRVLNDDFAFDNPAVYKIECYNDEDIKEVVSFTHTYAGQCFNGEEIVARGKLEEVIDKSGERYKRIVVGTTREAFNEYIKIKR”: “not soluble”; “MSLTHSTMHPYISLLDNEIYTHQGKEVITNMYNIIEKNLTLNLIANNVQYHPNQKTISFTHPSITIFNNKNIAIWYITCNQAQLYHQKKTLNLHGQVFINQIVKKICTQSIITNQLLIDLNNQSIISNNKTIIHGHYFYSIGSCMNINLHTQTTTLFGKIYTQYEIQNMEGHHHHHH”: “not soluble”.
Take “MGSDKIHHHHHHMVQNTFSDFDVSGFWDDSAYSIEEYVEETPTDALIDSIEQELGYKLPASYIELMKQHNGGTPVNCCFPVTEETSGTEYHVEISGIMGIGRSKTYSLGGSFGSRFMIDEWGYPDTGIYVCTCPSAGHEMILLDYSICGPKGEPQVFYVDQEREYQKTFLAKDFETFIRGLVHADVYDTSAQDLISTLETFRTGNFSEVLQAYIKKDLSVNFDRVLRNLFTELTTEKGYFALHADELSYLSYDIQFYLLSINRKIKSKEDFVKHYLPMVAMSDAGITTGGYANFFEDWFDEKIKSKEITKGLLSGFLFTEIYKQKLFERIKQYDK”: the “soluble on expression in E. coli” value is recorded as “not soluble”.
For “YQPNYFLSIPITNKKITAGIKVLQNSILRQDNRLTKAMVGDGSFHITLLVMQLLNEDEVNIGTDALLELKPFVEEILEGKHLTLPFHGIGTFQGQVGFVKLADGDHVSALLEIAETAKRTFQEKGILAGESRTFKPHLTFMKLSKAPMLWKKGVRKIEPGLYEQFIDHRFGEEILYQIDLCSMLKKKQSNGYYHCESSIVIGEKD”, the “soluble on expression in E. coli” value is listed as “soluble”.
In the case of “MYVCLCHAITDTQIKNAVSQGDTSLADVKKRLGVADQCGKCARMAVQIIQNQLEIEPKYYEVA”, the “soluble on expression in E. coli” value was “soluble”.
Regarding “MSSSRHFSIPYDEDVVHSVILENTPSPPPKPPRGILRKEAPMKPQRSALKIEPARDDDKENNSQPQARSQFKAKDTMEQMQSYFKRSISVLRKSEEHFTGAEAADILTAYIETHRNEFPRDNIGRSNAVKLLEIWLESNTIQSVESHQKKFVDSERTFYRLGGDSESLYIVNTPIASRNHDDSASVSRSESSRRSNSIKRLFSPFVRRNRSNSRGRDKDKDNLKDGSSTNLKSTWSLFSSSSEKNEKKLKKAEQQLIKEEEAEVYELSLFHLLSLIDVEFLEDVALPVQDSKNNASFLSSILGKVGLGASEERLDPHQEDHMDLLIETHPLIRDASQWFQMARCCAPLLYFEAKPVASNHKTSHNEQLYLWCRAALDAVKNRLEKMTQNGSSPLFPSEFAPLLTKIAQQLINDMDSGEKLSTAVMYIFLMVPHPIRKTIDQLVQWLQLTMRTDAVEDLRSPYYLGKKDPRRYKENVNVIIGELSSFIFPRGCMTNVQQDIFIETLVELRQKGKLGQRPAQLESSLRAKSVNGQIKWQRKERKHNSLEGDLTPVRYTVRRESIRSKTSKSKDGLNETDSALVTMINSVIDNKELSLTEKKKQLMNFKKFYPKLYNDFFPGMI”, the “soluble on expression in E. coli” value was “not soluble”.
Consider “MSLSRPTKFRKVDFFPKSTCFIPLGKPKCEVEEIALKIEELEAIRLKDIKELNQEECAAKMEVSRQTFQNIIDSARKKIAIALTEGNAIAIGGGNFKSKFCKFKCLDCRNTYEINCENDKHMCPSCGSNNIVCNKKTGSCENLCKEGHHHHHH”, for which the “soluble on expression in E. coli” value is on record as “soluble”.
To “MCQSNQIVSHFLSHRNVTNELAEKISKDHYSYKPAETSMSAEELVKHILTSFHLFANVIKEGNASPFQNKQEETETDLNVLAKTYTEKTVAILEQLTEEQLDREIDLTSAFGRKVTGRALLQLAMEHEIHHKGNLFVYVREMGHTELPFYQQRMLEHHHHHH” belongs “soluble”; to “MPSARLQQQFIRLWQCCEGKSQDTTLNELAALLSCSRRHMRTLLNTMQDRGWLTWEAEVGRGKRSRLTFLYTGLALQQQRAEDLLEQDRIDQLVQLVGDKATVRQMLVSHLGRSFRQGRHILRVLYYRPLRNLLPGSALRRSETHIARQIFSSLTRINEENGELEADIAHHWQQISPLHWRFFLRPGVHFHHGRELEMDDVIASLKRINTLPLYSHIADIVSPTPWTLDIHLTQPDRWLPLLLGQVPAMILPREWETLSNFASHPIGTGPYAVIRNSTNQLKIQAFDDFFGYRALIDEVNVWVLPEIADEPAGGLMLKGPQGEEKEIESRLEEGCYYLLFDSRTHRGANQQVRDWVSYVLSPTNLVYFAEEQYQQLWFPAYGLLPRWHHARTIKSEKPAGLESLTLTFYQDHSEHRVIAGIMQQILASHQVTLKIKEIDYDQWHTGEIESDIWLNSANFTLPLDFSVFAHLCEVPLLQHCIPIDWQADAARWRNGEMNLANWCQQLVASKAMVPLLHHWLIIQGQRSMRGLRMNTLGWFDFKSAWFAPPDP”, “not soluble”; to “MAHHHHHHMHFSLQKKNICTNSTKCVNVHPYLFPPLGMVPKRVRYDVHRGGEQHTDITNLLHTFKRFKMVKTSSYRRKSRSSPNGQGQKAKIGIKRLSAEYVKTGQLLVKQRKIIAFNLERKTRRRNFKYYPGEHVKVTKNTSLVALTNGRVKYTFHTTQNVLIVNVLPEEIDELREEDLYRYRTEHVRSLEENRSLVYLRMKHVVSFPPSKETQFRKPPLRPQFLARYDIEDNPTLREVPVLYHKPK”, “not soluble”.
On to “MSLSDLDRAIAQLRACRLIPEAQVRELCYKARELLIEEGNVVCVDAPVTICGDIHGQFHDLMELFRVGGDVPDTNYLFMGDFVDRGFYSLESEGHHHHHH”, for which the “soluble on expression in E. coli” value is listed as “not soluble”.
Take “MDDPASYELDPSIAQRVKFNSAGLVPAVVQSTDGEVLMLAWMDAHALAYTIATRKGTYFSRSRNEYWIKGLTSGHTQQVTGLQLDCDGDTVLMTVVQQGGACHTGDRTCFDADVII”: the “soluble on expression in E. coli” value was “not soluble”.
